Source: patent publication US20260116946A1, “NOVEL CD200 FUSION PROTEINS” (DUCENTIS BIOTHERAPEUTICS LIMITED, priority 2022, published 2026)
Numbering of substitutions follows the chain as printed. In names and notes the source's numbering stands. Read-outs that look alike come from different tables or passages of the source.

Key:
[1] = molecular target: Recombinant Cyno CD200R, His-tagged (Creative Biomart CD200R1-3483C) (cynomolgus) (UniProt G7NZT0); assay: SPR (BIAcore T200), CD200-Fc captured on anti-human Fc, cyno CD200R in solution, 25 C, mean of two runs
[2] = molecular target: Recombinant Cyno CD200R, His-tagged (Creative Biomart CD200R1-3483C) (cynomolgus) (UniProt G7NZT0); assay: SPR (BIAcore), DS-155 captured via anti-human Fc, CynoCD200R1 as analyte, DRC = 1000 nM to 62.5 nM (5 curves), 25 °C, 1:1 Binding fit; Run 2
[3] = molecular target: Recombinant Cyno CD200R, His-tagged (Creative Biomart CD200R1-3483C) (cynomolgus) (UniProt G7NZT0); assay: SPR (BIAcore T200), CD200-Fc captured on anti-human Fc, cyno CD200R in solution, 25 C
[4] = molecular target: Recombinant Cyno CD200R, His-tagged (Creative Biomart CD200R1-3483C) (cynomolgus) (UniProt G7NZT0); assay: SPR (BIAcore), DS-155 captured via anti-human Fc, CynoCD200R1 as analyte, DRC = 1000 nM to 62.5 nM (5 curves), 25 °C, 1:1 Binding fit; Run 1
[5] = molecular target: Recombinant Human CD200R, His-tagged (Creative Biomart CD200R1-320H) (human) (UniProt Q8TD46); assay: SPR (BIAcore), DS-155 captured via anti-human Fc, HuCD200R1 as analyte, DRC = 500 nM to 31.25 nM (5 curves), 25 °C, 1:1 Binding fit; Run 2
[6] = molecular target: Recombinant Human CD200R, His-tagged (Creative Biomart CD200R1-320H) (human) (UniProt Q8TD46); assay: SPR (BIAcore T200), CD200-Fc captured on anti-human Fc, human CD200R in solution, 25 C, mean of two runs
[7] = molecular target: Recombinant Human CD200R, His-tagged (Creative Biomart CD200R1-320H) (human) (UniProt Q8TD46); assay: SPR (BIAcore T200), CD200-Fc captured on anti-human Fc, human CD200R in solution, 25 C
[8] = molecular target: Recombinant Human CD200R, His-tagged (Creative Biomart CD200R1-320H) (human) (UniProt Q8TD46); assay: SPR (BIAcore), DS-155 captured via anti-human Fc, HuCD200R1 as analyte, DRC = 500 nM to 31.25 nM (5 curves), 25 °C, 1:1 Binding fit; Run 1
[9] = molecular target: Recombinant Human CD200R, His-tagged (Creative Biomart CD200R1-320H) (human) (UniProt Q8TD46); assay: not described (affinity label of the construct for CD200R)
[10] = molecular target: T1, muCD200R-Fc (Creative Biomart CD200R1-458M) (mouse, UniProt Q9ES57 26-238); assay: SPR, muCD200R-Fc captured on anti-human IgG Fc, CD200 monomers in solution
T1 construct: Bought reagent; also called captured CD200R; not shown: Fc part of the bought fusion; captured on anti-human IgG Fc
T1 sequence (looked up): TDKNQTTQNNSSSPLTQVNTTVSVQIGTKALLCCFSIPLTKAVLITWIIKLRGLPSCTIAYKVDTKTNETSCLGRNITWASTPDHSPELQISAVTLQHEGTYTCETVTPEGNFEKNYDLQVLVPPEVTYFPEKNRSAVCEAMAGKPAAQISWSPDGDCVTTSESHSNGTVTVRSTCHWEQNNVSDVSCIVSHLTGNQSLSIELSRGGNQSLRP
Protocol: For human CD200 constructs: anti-human Fc (GE Healthcare) was covalently immobilized on a BIAcore CM5 sensor chip (Cytiva, BR100530) by amine coupling using a Cytiva kit (BR100839) following the manufacturer's instructions, targeting immobilization of 8,000-11,000 RU. CD200-Fc proteins were diluted to 0.5 μg/mL to 4 μg/mL in running Buffer (1×HBS-EP+pH7.4 (Cytiva BR100669), HEPES Buffered Saline pH 7.4 containing 3 mM EDTA and 0.05% v/v Surfactant P20) and flowed for 25 to 100 seconds at […] over the immobilized Anti-Human IgG Fc, with a stabilization time of 60 seconds. Between 35 and 250 RUs of CD200-Fc were captured, with higher RUs used for cynomolgus CD200R binding experiments. […] Analysis temperature was 25° C. This was followed by regeneration of the surface with 30-90 second pulse of 3M MgCl₂ flowed at 30 μL/min flow rate followed by stabilization of the surface with 60 second flow of running buffer.
(§1) For mouse CD200 constructs, muCD200R-Fc (Creative Biomart CD200R1-458M) diluted to 1 μg/mL in running buffer was flowed over the immobilized Anti-Human IgG Fc, with CD200 monomers serially diluted and flowed over captured CD200R. Other details were as above. Data analysis: experimental sensorgrams were analyzed in BIAevaluation software (GE Healthcare). The curves obtained were fitted to 1:1 Langmuir binding model by setting Rmax and RI as local parameters. Rate equations using standard parameters (e.g. ligand concentration, time) were used for iterative curve fitting. Closeness of fit was determined by algorithms provided by the manufacturer in the BIAevaluation software, and data accepted if the Chi² value was less than 10% of Rₘₐₓ, and the U value was less than or equal to 15.

[11] = molecular target: T2, muCD200R-Fc (Mus musculus, UniProt Q9ES57); assay: BIAcore SPR binding of murine CD200 variants to muCD200R-Fc
T2 construct: purchased Creative Biomart CD200R1-458M
T2 sequence (Q9ES57 26-238 limits assumed): T1 sequence (looked up)
Protocol: as §1, with “Chi^2” for “Chi²”, “Rmax,” for “Rₘₐₓ,”
Murine CD200 constructs used Uniprot sequence O54901, containing the signal peptide and extracellular domains. Mutation numbers refer to the full Uniprot sequences including signal peptide.
Proteins were generated by transient transfection of pcDNA 3.1-based expression plasmids into CHO-3E7 cells using Polyethyleneimine (PEI). 24 hours post transfection, cultures were shifted to 32° C., fed with 10% feed C, glutamine, glucose and […] Sodium butyrate; supernatants were harvested and filtered at day 7. Purification was performed at 4° C. using MabSelect SuRe 5 ml affinity columns (Cytiva), pre-equilibrated with 50 mM Sodium Phosphate, 150 mM NaCl PH 7.4, at a flowrate of 3 mL/min on a AKTA Pure platform. The column was washed with equilibration buffer and bound protein eluted using 20 mM sodium acetate, 150 mM NaCl pH 3.5. Elutes were neutralized with 10% v/v 1 M Tris pH 8.0 and analysed by SDS-PAGE. Pooled fractions were concentrated to 5 mL and subjected to gel-filtration chromatography (Hiload 16/600 Superdex-200 pg column) on a AKTA Pure platform. The protein was processed in 50 mM Sodium Phosphate, 150 mM NaCl pH 7.4 buffer system at 1.2 mL/min. Fractions containing protein were pooled and concentrated using an Amicon Ultra Centricon (10 kDa molecular weight cut-off) to 1.33 mg/mL (measured at UV 280 nm). The purified material was subjected to SEC-HPLC, LC-MS and EndoSafe LAL cartridge test to assess protein purity, molecular mass and endotoxin content, respectively. Mouse CD200-his proteins were purified with Ni-NTA agarose resin using standard methodology. All proteins were stored at −80° C.

[12] = tested on: male DBA/1J mice; assay: Mouse collagen-induced arthritis (CIA) model, preventative dosing; type: in vivo; settings: 3 mg/kg once every 3 days, day 22 to 36; scores day 25-36
Protocol: Wild type (DS-198) and higher affinity (DS-227) murine CD200-Fc proteins were tested using a CIA model by initiating dosing just prior to symptom onset. Arthritis was induced in male DBA/1J mice by intradermal injection of bovine type II collagen in CFA (complete Freund's adjuvant) on day 1, followed by a booster injection in incomplete Freund's adjuvant on day 21. […] Clinical scores of paw arthritis (blinded assessment) were measured from day 25-36 on alternate days. The data in FIG. 9 are shown as Mean±SEM. **p<0.01; ***p<0.001 vs Disease+Dexa, Disease+DS-198, & Disease+DS-227. Two-way RM ANOVA followed by Tukey's multiple comparisons test.

[13] = murine CD200, stated in text, read-out: binding affinity

Sequence of Recombinant Human CD200R, His-tagged (Creative Biomart CD200R1-320H) (human) (Q8TD46 27-266 limits assumed): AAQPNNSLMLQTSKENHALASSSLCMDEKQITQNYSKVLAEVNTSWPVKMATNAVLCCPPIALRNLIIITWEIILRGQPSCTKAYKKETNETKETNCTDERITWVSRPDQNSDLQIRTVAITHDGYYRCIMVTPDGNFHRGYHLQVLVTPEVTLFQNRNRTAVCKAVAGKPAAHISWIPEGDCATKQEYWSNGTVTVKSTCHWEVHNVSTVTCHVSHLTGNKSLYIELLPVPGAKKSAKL

## DS-155 (wild-type human CD200-Fc, IgG4 S228P) (from UniProt P41217 31-232; P01861 99-327) (Fc fusion)
[1]
  Kd: 971 nM
  koff: 0.0586 s⁻¹
  kon: 60600 M⁻¹ s⁻¹
[2]
  Kd: 1050 nM
  koff: 0.0608 s⁻¹
  kon: 57600 M⁻¹ s⁻¹
[3]
  t½: 12 s
[4]
  Kd: 888 nM
  koff: 0.0564 s⁻¹
  kon: 63500 M⁻¹ s⁻¹
[5]
  Kd: 183 nM
  koff: 0.0329 s⁻¹
  kon: 180000 M⁻¹ s⁻¹
[6]
  Kd: 179 nM
  koff: 0.0326 s⁻¹
  kon: 183000 M⁻¹ s⁻¹
[7]
  t½: 21 s
[8]
  Kd: 174 nM
  koff: 0.0324 s⁻¹
  kon: 186000 M⁻¹ s⁻¹

## DS-192 (human CD200 K130Y - IgG4 S228P Fc) (from UniProt P41217 31-232; P01861 99-327) (Fc fusion)
[9]
  Kd: 13 nM

B1: murine CD200 wild type (Table 7 'wt') (ligand, mouse, UniProt O54901 31-232, looked up)
chain: QVEVVTQDERKALHTTASLRCSLKTSQEPLIVTWQKKKAVSPENMVTYSKTHGVVIQPAYKDRINVTELGLWNSSITFWNTTLEDEGCYMCLFNTFGSQKVSGTACLTLYVQPIVHLHYNYFEDHLNITCSATARPAPAISWKGTGTGIENSTESHFHSNGTTSVTSILRVKDPKTQVGKEVICQVLYLGNVIDYKQSLDKG
notes: extracellular domain; The Fc fusion with the same CD200 part is DS-198 (muIgG2a); also called mouse CD200-his; CD200 monomer
[10]
  T1/2: 17.3 s

B2: H82Y, T125I: murine CD200 combination variant H82Y, T125I of Table 7 (protein)
chain: B1 chain with H52Y, T95I
[11]; [13]
  Kd: 43 nM
[11]; murine CD200 variants, table head prints no unit, nM, read-out: KD
  Kd: 43.3 ± 4.9 nM
[11]; versus wild type murine CD200
  fold higher binding affinity than wild type: approximately 14 fold

B3: DS-227: high affinity murine CD200-Fc, CD200 H82Y, T125I, muIgG2a Fc (protein)
chain: B1 chain with H52Y, T95I
modifications: left off: small tags and cut ends
[12]
  clinical score of paw arthritis: significantly more potent in reducing clinical score than wild type (DS-198)
[11]; [13]
  Kd: 43 nM

B4: murine CD200 H82Y, T125I (Table 7 combination variant) (ligand, mouse, UniProt O54901 31-232, looked up)
chain: B1 chain with H52Y, T95I
notes: extracellular domain; The Fc fusion with the same mutations is DS-227 (muIgG2a, called '43 nM muCD200-Fc'); also called combination variant H82Y, T1251; mouse CD200-his
[10]
  T1/2: 118 s
  fold higher binding affinity than wild type: ~14 fold
